Results taken from patent US20230083273A1 (TRUSTEES OF INDIANA UNIVERSITY, published 2023).

What was measured:
[1] = target: T1, HBV Cp149His monomer (Cp149-6xHis half-dimer) (hepatitis B virus (HBV), UniProt P03147 1-149); test: native mass spectrometry of the purified co-expressed protein; also a single SEC peak at the dimer position and about equal SDS-PAGE bands
T1 construct: also called Cp149His6; CpHis monomer

[2] = target: the molecule itself; test: Ni2+-driven assembly (10 uM heterodimer, 100 uM NiCl2, low ionic strength); SEC, CDMS, negative-stain EM
HBV Cp150 homodimer [3] = target: T2, HBV Cp150 homodimer (hepatitis B virus (HBV), UniProt P03147 1-149); test: negative-stain EM
T2 chain: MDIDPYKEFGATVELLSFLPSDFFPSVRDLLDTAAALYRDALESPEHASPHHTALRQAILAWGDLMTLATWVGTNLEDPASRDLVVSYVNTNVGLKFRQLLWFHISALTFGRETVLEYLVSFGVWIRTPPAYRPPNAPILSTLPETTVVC

HBV Cp150 homodimer [4] = target: T2, HBV Cp150 homodimer; test: co-assembly at 300 mM NaCl, SEC
[5] = target: the molecule itself; test: SEC of capsid assembly at 300 mM NaCl

B1: HBV Cp149Y132A monomer (Cp149-Y132A half-dimer) (other)
chain: MDIDPYKEFGATVELLSFLPSDFFPSVRDLLDTAAALYRDALESPEHCSPHHTALRQAILCWGDLMTLATWVGTNLEDPASRDLVVSYVNTNVGLKFRQLLWFHISCLTFGRETVLEYLVSFGVWIRTPPAARPPNAPILSTLPETTVV
- binding result [1]: binds

B2: heterodimer Cp149HisCp149Y132A (other)
chain 1: MDIDPYKEFGATVELLSFLPSDFFPSVRDLLDTAAALYRDALESPEHCSPHHTALRQAILCWGDLMTLATWVGTNLEDPASRDLVVSYVNTNVGLKFRQLLWFHISCLTFGRETVLEYLVSFGVWIRTPPAYRPPNAPILSTLPETTVVHHHHHH
chain 2: MDIDPYKEFGATVELLSFLPSDFFPSVRDLLDTAAALYRDALESPEHCSPHHTALRQAILCWGDLMTLATWVGTNLEDPASRDLVVSYVNTNVGLKFRQLLWFHISCLTFGRETVLEYLVSFGVWIRTPPAARPPNAPILSTLPETTVV
notes: also called Cp149His6Cp149Y132A; asymmetric heterodimer
- binding result [2]: binds
- binding result (HBV Cp150 homodimer [3]): binds

B3: Cp149HisCp149Y132A hexamer (hexamer of heterodimers assembled with Ni2+) (other)
chain 1: MDIDPYKEFGATVELLSFLPSDFFPSVRDLLDTAAALYRDALESPEHCSPHHTALRQAILCWGDLMTLATWVGTNLEDPASRDLVVSYVNTNVGLKFRQLLWFHISCLTFGRETVLEYLVSFGVWIRTPPAYRPPNAPILSTLPETTVVHHHHHH
chain 2: MDIDPYKEFGATVELLSFLPSDFFPSVRDLLDTAAALYRDALESPEHCSPHHTALRQAILCWGDLMTLATWVGTNLEDPASRDLVVSYVNTNVGLKFRQLLWFHISCLTFGRETVLEYLVSFGVWIRTPPAARPPNAPILSTLPETTVV
notes: also called heterodimer hexamer; hexamers
- binding result (HBV Cp150 homodimer [4]): binds

B4: HBV Cp149 homodimer (wild-type assembly domain) (other)
chain: MDIDPYKEFGATVELLSFLPSDFFPSVRDLLDTAAALYRDALESPEHCSPHHTALRQAILCWGDLMTLATWVGTNLEDPASRDLVVSYVNTNVGLKFRQLLWFHISCLTFGRETVLEYLVSFGVWIRTPPAYRPPNAPILSTLPETTVV
notes: also called wild-type homodimer Cp149
- binding result [5]: binds
